Several values for one entry are separate records, joined by “and”; a condition that tells them apart may be missing. Identical values can stand only once.
Legend:
Peptide-2 [1] = target: T1, Peptide-2 (human, phosphothreonine 212, phosphothreonine 217 (tau 2N4R numbering); short chain biotin (SCBiot) and dPEG4 at the N-terminus; amide at the C-terminus); assay: SPR ProteOn, peptide captured, Fab as analyte; Peptide-2 (pT212/pT217); peptide mapping run of Table 6, n=2
T1 construct: also called pT212/pT217-tau peptide (Peptide-2)
T1 sequence (peptide, as listed by the source): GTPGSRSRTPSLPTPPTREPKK
Experimental: (§1) The binding affinity of PT3 Fab towards each of the fourteen tau phosphopeptides shown in Table 6 was assessed by surface plasmon resonance (SPR) using a Bio-Rad ProteOn XPR36. Peptides were synthesized by standard chemical methods (New England Peptide) with short-chain biotin and a PEG4 moiety at the N-terminus. Biotinylated peptide was captured on a neutravidin-coated NLC biosensor chip and PT3 Fab was flowed over the surface to measure kinetic parameters.
(§2) All experiments were performed at 25° C. using phosphate buffered saline, pH 7.4, 0.005% Tween 20 (PBST) as both running buffer and sample dilution buffer. Prior to running samples, the NLC chip was conditioned by running PBST over the chip surface for 1 h. Approximately 5-10 RU of peptide was captured on the chip surface by diluting peptide to 10 ng/mL in PBST and injecting over the flow channels at 30 μL/min for 100 s. Serial dilutions of PT3 Fab (1.1-90 nM) were analyzed and, with the exception of Peptide-8, each concentration was measured in duplicate. After capture of peptides, the antibody titration was injected at 60 μL/min for 3 minutes (association phase), followed by 300 s of buffer only (dissociation phase).
(§3) The data were double referenced by subtraction of the interspot response and the curves generated by the buffer-only injection. […] The data were analyzed using a simple Langmuir 1:1 binding model.

Peptide-6 [2] = target: T2, Peptide-6 (human, phosphothreonine 217 (tau 2N4R numbering); SCBiot and dPEG4 at the N-terminus; amide at the C-terminus); assay: SPR ProteOn, peptide captured, Fab as analyte; range of n=2; Peptide-6 (pT217 only); upper end of n=2 range
Experimental: as §1, §2, §3

[3] = target: T3, tau phospho-peptide of the direct ELISA of Example 11; assay: direct ELISA on plate-coated tau phospho-peptide, Fabs
T3 construct: also called pT217 peptide; pT212/pT217 peptide
Experimental: Binding to tau phospho-peptide was analysed by ELISA where peptide (10 ng/mL) was directly coated to the plate overnight. […] After incubation with antibodies, plates were washed and 50 μL per well of HRPO labelled anti-Fab antibody (Jackson Immunoresearch laboratories) (diluted 1:10000 in blocking buffer). After another washing step detection was performed with “One step” TMB (Thermo Scientific) according to the manufacturers' instructions. Plates were analysed in EnVision® 2102 Multilabel Reader (Perkin Elmer, Waltham, Mass., USA). Binding curves were generated using GraphPad Prism7.0 software.

[4] = target: T3, tau phospho-peptide of the direct ELISA …; assay: direct ELISA, peptide coated
Method in brief: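 Tau phospho-peptide coated directly on plates at 10 ng/mL overnight, then incubated with antibodies. Bound Fab detected with HRPO-labelled anti-Fab antibody (1:10000) and TMB substrate. Binding curves generated from the read-out.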

Peptide-6 [5] = target: T2, Peptide-6; assay: SPR ProteOn, peptide captured, Fab as analyte; Peptide-6, phosphorylated at 217 only
Experimental: as §1, §2, §3

Peptide-1 [6] = target: T4, Peptide-1 (human, phosphothreonine 212, phosphoserine 214, phosphothreonine 217 (tau 2N4R numbering); short chain biotin (SCBiot) and dPEG4 at the N-terminus; amide at the C-terminus); assay: SPR ProteOn, peptide captured, Fab as analyte; Peptide-1, phosphorylated at 212/214/217
T4 construct: also called tau peptide phosphorylated at T212/S214/T217
Experimental: as §1, §2, §3

Peptide-5 [7] = target: T5, Peptide-5 (human, phosphoserine 210, phosphoserine 214, phosphothreonine 217 (tau 2N4R numbering); SCBiot and dPEG4 at the N-terminus; amide at the C-terminus); assay: SPR ProteOn, peptide captured, Fab as analyte; Peptide-5, phosphorylated at 210/214/217
Experimental: as §1, §2, §3

Peptide-1 [8] = target: T4, Peptide-1; assay: SPR ProteOn, peptide captured, Fab as analyte; range of n=2
Experimental: as §1, §2
(§4) The data were double referenced by subtraction of the interspot response and the curves generated by the buffer-only injection. The chip surface was regenerated using a single injection of 0.85% phosphoric acid at 30 μL/min for 100 s contact time, followed by four injections of running buffer before the next antibody titration injection. The data processing and kinetic analysis were done using the instrument software. The data were analyzed using a simple Langmuir 1:1 binding model.

Peptide-5 [9] = target: T5, Peptide-5; assay: as above
Experimental: as §1, §2, §4

Peptide-4 = Peptide-4 (human, phosphoserine 210, phosphothreonine 217 (tau 2N4R numbering); SCBiot and dPEG4 at the N-terminus; amide at the C-terminus); assay: as above
Experimental: as §1, §2, §4

Peptide-2 [10] = target: T1, Peptide-2; assay: as above
Experimental: as §1, §2, §4

B1: PT3 Fab (B187) (Fab, V domains shown)
VH: EVKLVESGGDLVKPGGSLKLSCAASGFTFSSYAMSWVRQNPEKRLEWVASISKGGNTYYPNSVKGRFTISRDNARNILYLQMSSLRSEDTALYYCARGWGDYGWFAYWGQVTLVTVSA
VL: DIKMTQSPSSMYASLGERVTITCKASQDINRYLNWFQQKPGKSPKTLIYRANRLLDGVPSRFSGSGSGQDYSLTISSLDYEDMGIYYCLQYDEFPLTFGDGTKLELK
notes: Chimeric Fab: mouse variable regions, human IgG1/kappa constant region, 6xHis tag at the C-terminus of the heavy chain; also called mouse parental Fab of PT3
Kd (Peptide-2 [1]): 0.27 nM | Kd (Peptide-6 [2]): 10.9 to 11.9 nM | EC50 (read off the curve) [3]: ~0.2 nM | EC50 [4]: 0.11 nM | Kd (Peptide-6 [5]): 11.4 nM | Kd (Peptide-1 [6]): 0.26 nM | Kd (Peptide-5 [7]): 8.7 nM | koff (Peptide-1 [8]): 0.000236 s⁻¹ and 0.000324 s⁻¹ | kon (Peptide-1 [8]): 870000 M⁻¹ s⁻¹ and 1.67e+06 M⁻¹ s⁻¹ | Kd (Peptide-5 [9]): 6.6 to 10.8 nM | Kd (Peptide-4): 6.48 to 6.71 nM | Kd (Peptide-2 [10]): 0.09 to 0.45 nM | koff (Peptide-2 [10]): 9.1e-05 s⁻¹
